1 molecule from paper PMC4102620 (Journal of molecular biology, 2014) can be followed below.

The assay has as its target yeast E1 (Uba1) (yeast, UniProt P22515 1-1024, biotin on the C-terminal biotin ligase acceptor peptide). As to the kind of experiment: fluorescent FL-UB-E1 band on non-reducing SDS-PAGE.

B1: fluorescently labeled wild type ubiquitin (FL-UB) (natural protein)
chain: not shown
modifications: fluorescein (iodoacetamide) on the unique cysteine of the N-terminal tag
In the case of B1, the binding result is “binds”.
